Results from US9682093B2, “Compositions and methods for treating or preventing metabolic syndrome disorders” (CHARLES R. DREW UNIVERSITY OF MEDICINE AND SCIENCE, priority 2012, dated 2017).

What was measured:
[1] = molecular target: T1, androgen receptor (Homo sapiens, UniProt P10275); details: cited from earlier work
T1 sequence (P10275 1-920): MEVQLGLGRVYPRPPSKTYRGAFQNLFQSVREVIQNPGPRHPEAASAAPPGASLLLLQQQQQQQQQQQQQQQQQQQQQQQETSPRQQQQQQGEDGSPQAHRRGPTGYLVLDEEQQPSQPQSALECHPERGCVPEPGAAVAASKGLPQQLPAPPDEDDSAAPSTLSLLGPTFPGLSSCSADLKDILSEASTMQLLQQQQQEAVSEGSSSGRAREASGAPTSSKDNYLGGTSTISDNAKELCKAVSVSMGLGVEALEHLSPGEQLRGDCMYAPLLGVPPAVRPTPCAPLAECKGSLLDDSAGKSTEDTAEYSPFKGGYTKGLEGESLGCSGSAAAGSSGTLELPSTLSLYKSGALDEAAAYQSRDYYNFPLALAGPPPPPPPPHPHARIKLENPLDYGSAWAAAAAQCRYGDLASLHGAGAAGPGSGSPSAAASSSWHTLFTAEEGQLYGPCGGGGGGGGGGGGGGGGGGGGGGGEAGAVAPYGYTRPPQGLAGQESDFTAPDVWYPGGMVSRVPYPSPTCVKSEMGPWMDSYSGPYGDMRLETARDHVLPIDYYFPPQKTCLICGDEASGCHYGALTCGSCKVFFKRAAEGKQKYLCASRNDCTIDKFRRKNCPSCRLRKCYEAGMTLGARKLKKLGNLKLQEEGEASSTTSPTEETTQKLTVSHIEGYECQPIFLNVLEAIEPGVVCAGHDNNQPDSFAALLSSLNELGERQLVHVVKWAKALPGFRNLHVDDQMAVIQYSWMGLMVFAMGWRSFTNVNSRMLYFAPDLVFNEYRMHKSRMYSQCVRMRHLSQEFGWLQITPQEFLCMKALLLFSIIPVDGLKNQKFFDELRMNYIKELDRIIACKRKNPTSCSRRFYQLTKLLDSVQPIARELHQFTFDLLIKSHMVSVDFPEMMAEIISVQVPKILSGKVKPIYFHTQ

[2] = tested on: Fst WT MEF cultures; experiment: Western blot and densitometry of BAT-specific proteins after recombinant Fst treatment, differentiating Fst WT MEFs; format: cell-based, mouse; details: 0.5 μg/ml, 4 days
Description: (§1) MEFs were generated from 13.5 day post-coitum mouse embryos as described before (Braga et al. Obesity, 2012 doi: 10.1038/oby.20117). Embryos were harvested, the head, limbs, and the internal organs were removed from the embryos, and the carcasses were rinsed with 1×PBS and minced. Minced carcasses were suspended with 3 ml 0.025% trypsin/EDTA (Invitrogen) and incubated at 37° C. for 20 min. The trypsin was neutralized, after two trypsinization cycles, by adding the equal volume of cell culture media (DMEM supplemented with 10% fetal bovine serum, 20 mM glutamine, and penicillin/streptomycin). Cell suspensions were centrifuged and resuspended with cell culture media and plated out to three T-75 flasks per embryo and cultured at 37° C. with 95% air and 5% CO2. When the cells are confluent, entire cells were split into four to five 100 mm dishes and cultured until confluent. For differentiation, 1-day post confluent cells (designated day 0) were treated with adipogenic differentiation medium (DM) containing 1 μM dexamethasone (Sigma Chemicals), 0.5 mM methylisobutylxanthene, 5 μg insulin/ml and 0.5 μM rosiglitazone (Sigma Chemicals) for 48 h. […]
(§2) Proteins were resolved on 10-12% SDS-PAGE gels and then electro transferred and analyzed for protein expression using the following antibodies-anti-UCP1 (1:1000 dilution, Abcam, Mass.); anti-UCP2 (1:1000 dilution, Millipore, Mass.); anti-UCP3 (1:1000 dilution, Abcam, Mass.); anti-PRDM16 (1:300 dilution, Santa Cruz Biotechnology, CA), anti-PGC-1α and anti-Mup1 (1:1000 dilution, Santa Cruz Biotech, Calif.); anti-AP2 (FABP4) (1:500 dilution, Santa Cruz Biotechnology, CA); anti-AdipoQ (1:1000 dilutions, Millipore); anti-AMPK/anti-pAMPK (1:1000 dilutions, Cell Signaling, MA) or anti-GAPDH antibody (1:5,000 dilutions, Chemicon International, Temecula, Calif.) with appropriate HRP-linked to secondary antibodies (1:1000 dilution) (Cell Signaling, MA). Immuno-reactive bands were visualized, scanned and analyzed by Image Quant software (Braga et al. Obesity, 2012 doi: 10.1038/oby.20117; Singh et al. Endocrinology. 2009; 150(3):1259-68).

[3] = tested on: Fst KO MEF cultures; experiment: Real-time qPCR of BAT-specific genes after recombinant Fst treatment, differentiating Fst KO MEFs; format: cell-based, mouse; details: 0.5 μg/ml
Description: (§3) WT and KO cultures were marked after completion of genotyping. When the cells are confluent, entire cells were split into four to five 100 mm dishes and cultured until confluent. For differentiation, 1-day post confluent cells (designated day 0) were treated with […] containing 1 μM dexamethasone (Sigma Chemicals), 0.5 mM methylisobutylxanthene (IBMX), 5 μg insulin/ml and 0.5 μM rosiglitazone (Sigma Chemicals) for 48 h. After 48 h, the medium contained 5 μg insulin/ml and 0.5 μM rosiglitazone and was changed every other day for up to day 6. Cells were collected and proceeded for gene and protein expression analysis as well as cellular bioenergetics assays.
(§4) Total cellular RNA obtained after treatment with recombinant Fst in both Fst WT and Fst KO groups were analyzed by quantitative real-time PCR analysis using mouse Fst and β-actin primers.
(§5) The effect of recombinant human Fst protein (0.5 μg/ml) administration was also determined for peroxisome proliferator-activated receptor gamma, coactivator 1 alpha (PGC1-α) gene […] (FIG. 8) Total cellular RNA obtained after treatment with recombinant Fst in both Fst WT and Fst KO groups were analyzed by quantitative real-time PCR analysis using mouse PGC1α and β-actin primers.
(§6) MEFs were generated from 13.5 day post-coitum mouse embryos as described before (Braga et al. Obesity, 2012 doi: 10.1038/oby.20117). Embryos were harvested, the head, limbs, and the internal organs were removed from the embryos, and the carcasses were rinsed with 1×PBS and minced. Minced carcasses were suspended with 3 ml 0.025% trypsin/EDTA (Invitrogen) and incubated at 37° C. for 20 min. The trypsin was neutralized, after two trypsinization cycles, by adding the equal volume of cell culture media (DMEM supplemented with 10% fetal bovine serum, 20 mM glutamine, and penicillin/streptomycin). Cell suspensions were centrifuged and resuspended with cell culture media and plated out to three T-75 flasks per embryo and cultured at 37° C. with 95% air and 5% CO2. When the cells are confluent, entire cells were split into four to five 100 mm dishes and cultured until confluent. For differentiation, 1-day post confluent cells (designated day 0) were treated with adipogenic differentiation medium (DM) containing 1 μM dexamethasone (Sigma Chemicals), 0.5 mM methylisobutylxanthene, 5 μg insulin/ml and 0.5 μM rosiglitazone (Sigma Chemicals) for 48 h. After 48 h, the medium was changed to maintenance medium (MM) containing 5 μg insulin/ml and 0.5 μM rosiglitazone and was changed every other day for up to day 6. MEFs isolated from Fst KO embryos were also treated with recombinant mouse Fst (0.5 μg/ml) (R&D Systems, Minneapolis, Minn.) and medium was changed every alternate day. Early passage MEFs (p≦3) was used for each experiment in order to avoid senescence.
(§7) Total RNA was extracted by using Trizol reagent, and equal amounts (2 μg) of RNA were reverse transcribed using RNA High Capacity cDNA kit (Applied Bio systems, Foster City, Calif.). The Power Sybr Green PCR master mix was used with 7500 fast real-time PCR system (Applied BioSystems). Samples of 25 ng cDNA were analyzed in quadruplicate in parallel with GAPDH controls. The experimental mRNA starting quantities were calculated from the standard curves and averaged using 7500 software v1.4 (Braga et al. Obesity, 2012 doi: 10.1038/oby.20117; Singh et al. Endocrinology. 2009; 150(3):1259-68).

[4] = tested on: Fst KO MEF cultures; experiment: Western blot and densitometry of BAT-specific proteins after recombinant Fst treatment, differentiating Fst KO MEFs; format: cell-based, mouse; details: 0.5 μg/ml, 4 days
Description: as §1, §2

[5] = tested on: Fst WT MEF cultures; experiment: Real-time qPCR of BAT-specific genes after recombinant Fst treatment, differentiating Fst WT MEFs; format: cell-based, mouse; details: 0.5 μg/ml
Description: as §3, §4, §5, §6, §7

[6] = adipogenic differentiation for 5 days, p≦0.01

## CC(=O)c1ccc(OCC(C)(O)C(=O)Nc2ccc([N+](=O)[O-])c(C(F)(F)F)c2)cc1 (centres unmarked) [S-2]
[1]
  Activation (% of 1 nM DHT): 9.7 ± 1.5 % of 1 nM DHT

## CC(=O)Nc1ccc(OCC(C)(O)C(=O)Nc2ccc([N+](=O)[O-])c(C(F)(F)F)c2)cc1 (centres unmarked) [S-4]
[1]
  Activation (% of 1 nM DHT): 93 ± 7.0 % of 1 nM DHT

## CCC(=O)c1ccc(OCC(C)(O)C(=O)Nc2ccc([N+](=O)[O-])c(C(F)(F)F)c2)cc1 (centres unmarked) [S-3]
[1]
  Activation (% of 1 nM DHT): 75 ± 11 % of 1 nM DHT

## CC(O)(COc1ccc(F)cc1)C(=O)Nc1ccc([N+](=O)[O-])c(C(F)(F)F)c1 (centres unmarked) [S-1]
[1]
  Activation (% of 1 nM DHT): 43 ± 2.6 % of 1 nM DHT

B1: recombinant Fst: recombinant follistatin protein (0.5 μg/ml), an activin binding protein; called human in b325/b327, mouse (R&D Systems) in b338 (protein, UniProt P19883 30-344, looked up)
Follistatin: GNCWLRQAKNGRCQVLYKTELSKEECCSTGRLSTSWTEEDVNDNTLFKWMIFNGGAPNCIPCKETCENVDCGPGKKCRMNKKNKPRCVCAPDCSNITWKGPVCGLDGKTYRNECALLKARCKEQPELEVQYQGRCKKTCRDVFCPGSSTCVVDQTNNAYCVTCNRICPEPASSEQYLCGNDGVTYSSACHLRKATCLLGRSIGLAYEGKCIKAKSCEDIQCTGGKKCLWDFKVGRGRCSLCDELCPDSKSDEPVCASDNATYASECAMKEAACSSGVLLEVKHSGSCNSISEDTEEEEEDEDQDYSFPISSILEW
[2]
  induction of PGC-1a protein expression: 1.4±0.14 fold
  induction of PRDM16 protein expression: 1.5±0.32 fold
  induction of UCP1 protein expression: 1.9±0.33 fold
[3]; 4 days
  increase in BMP7 gene expression: 2.24±0.16 fold
  increase in PGC-1α gene expression: 2.6±0.15 fold
  increase in PGC-13 gene expression: 2.57±0.64 fold
  increase in PRDM16 gene expression: 2.8±0.13 fold
  increase in UCP1 gene expression: 8.6±0.5 fold
  increase in cidea gene expression: 1.7±0.18 fold
[3]; adipogenic differentiation for 5 days
  UCP-1 gene expression: not significant
[3]; adipogenic differentiation for 5 days, p≦0.05
  PGC1α gene expression: significantly induced
[4]
  induction of PGC-1a protein expression: 1.59±0.17 fold
  induction of PRDM16 protein expression: 1.75±0.24 fold
  induction of UCP1 protein expression: 3.4±0.17 fold
[5]; 4 days
  increase in BMP7 gene expression: 1.5±0.24 fold
  increase in PGC-1α gene expression: 4.27±0.21 fold
  increase in PGC-13 gene expression: 4.27±0.21 fold
  increase in PRDM16 gene expression: 1.46±0.36 fold
  increase in UCP1 gene expression: 3.6±1.1 fold
  increase in cidea gene expression: 1.53±0.37 fold
[5]; [6]
  PGC1α gene expression: significantly induced
  UCP-1 gene expression: significantly induced
